# Assay results: patent US20250026838A1 (TRUEBINDING, published 2025)
# Biological target: T1, Human Galectin-3 (Gal3) protein (human, UniProt P17931 1-250)
# T1 construct: also called hGal3; rhGal-3
# Assay: competition ELISA, hGal3 coated; competitor: biotinylated hTGFβR2
# T1 sequence (P17931 whole entry): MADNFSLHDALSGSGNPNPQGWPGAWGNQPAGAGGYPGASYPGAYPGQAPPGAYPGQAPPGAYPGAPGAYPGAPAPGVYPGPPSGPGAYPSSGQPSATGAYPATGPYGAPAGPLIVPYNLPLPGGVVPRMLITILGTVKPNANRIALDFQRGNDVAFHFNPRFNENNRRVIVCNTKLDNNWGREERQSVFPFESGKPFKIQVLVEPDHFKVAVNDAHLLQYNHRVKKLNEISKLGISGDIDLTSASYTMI
row,Binder,blocking efficacy [%]
1,"TB006 (antibody, human IgG4 S228P, kappa, V domains shown, also called hTB006; hTB006Ab) VH: QVQLVQSGAEVKKPGASVKVSCKASGYSFTNYYMHWVRQAPGQRLEWMGWIYPGSGNTNYNEKFQGRVTITADTSASTAYMELSSLRSEDTAVYYCSTAPGGFDVWGQGTTVTVSS VL: DIVMTQTPLSLSVTPGQPASISCKSSKSLLHSDGITYLYWYLQKPGQSPQLLIYRMSNLASGVPDRFSGSGSGTDFTLKISRVEAEDVGVYYCAQMLEFPLTFGQGTKLEIKR",> 90
2,"14H10.2C9-hIgG4 (S228P) (antibody, V domains shown, also called QC200137; IMTAB0172) VH: QIQLVQSGPELKKPGETVKISCKASGYTFTTYGMGWVKQAPGKDLKWMGWINTYSGVPTYADDFKGRFAFSLETSASTAYLQISNLKNEDTATYFCSTPYEYDGAYWGQGTLVTVSA VL: not shown",> 90
3,"846.1H12-hIgG4(S228P) (antibody, V domains shown, also called F846C.1H12; QC200172 IMTAB0196) VH: QIQLVQSGPELKKPGETVKISCKASGYTFTNFGMNWVKQAPGKGLKWMGWINTYTGEPSYADDFKGRFAFSLETSASTAYLQINNLKNEDIATYFCARWGGYAGDYYAMDYWGQGTSVTVSS VL: NIMMTQSPSSLAVSAGQKVTMSCKSSQSVLYSSSQKNYLAWYQQKPGQSPKLLIYWASTRESGVPDRFSGSGSGTDFTLTISSVQPEDLAVYYCHQYLSSLTFGAGTKLELK",> 90

# Biological target: T1, Human Galectin-3 (Gal3) protein
# Assay: competition ELISA, hGal3 coated; competitor: biotinylated aggregated alpha-synuclein
row,Binder,blocking efficacy [%]
1,"TB001 (antibody, V domains shown, also called hTB001; IMT001-4-HCLC (TB001)) VH: QVQLVQSGSELKKPGASVKVSCKASGYTFTNYGMNWVRQAPGQGLKWMGWINTNTGEPTYVEEFTGRFVFSLETSVSTAYLQISSLKAEDTAVYFCAPYDNFFAYWGQGTTVTVSS VL: DIVLTQSPLSLPVTPGEPASISCRSSKSLLYKDGKTYLNWFLQKPGQSPQLLIYLMSTHASGVPDRFSGSGSGTDFTLKISRVEAEDVGVYYCQQLVDYPLTFGGGTKLEIK",> 70
2,"TB006 (antibody, human IgG4 S228P, kappa, V domains shown, also called hTB006; hTB006Ab) VH: QVQLVQSGAEVKKPGASVKVSCKASGYSFTNYYMHWVRQAPGQRLEWMGWIYPGSGNTNYNEKFQGRVTITADTSASTAYMELSSLRSEDTAVYYCSTAPGGFDVWGQGTTVTVSS VL: DIVMTQTPLSLSVTPGQPASISCKSSKSLLHSDGITYLYWYLQKPGQSPQLLIYRMSNLASGVPDRFSGSGSGTDFTLKISRVEAEDVGVYYCAQMLEFPLTFGQGTKLEIKR",> 70
3,"14H10.2C9-hIgG4 (S228P) (antibody, V domains shown, also called QC200137; IMTAB0172) VH: QIQLVQSGPELKKPGETVKISCKASGYTFTTYGMGWVKQAPGKDLKWMGWINTYSGVPTYADDFKGRFAFSLETSASTAYLQISNLKNEDTATYFCSTPYEYDGAYWGQGTLVTVSA VL: not shown",> 70
4,"846T.14A2-hIgG4(S338P) (antibody, V domains shown, also called F846TC.14A2; QC200122) VH: QIQLVQSGPELKKPGETVKISCKASGYTFTNYGMNWVKQAPGKGLKWMGWINTYTGEPTYAGDLKGRFAFSLETSASTAYLQINNLKNEDTATYFCVRYTMDYWGQGTSVTVSS VL: QAVVTQESALTTSPGETVTLTCRSSTGAVTTSNYANWVQEKPDHLFTGLIGGINNRVPGVPARFSGSLIGDKAALTITGAQTEDEAIYFCALWYSNHWVFGGGTKLTVL",> 70
5,"84712F12-hIgG4(S288P) (antibody, V domains shown, also called 847.12F12-hIgG4 (S228P); F847C.12F12) VH: QIQLVQSGPELKKPGETVKISCKASGYTFTNYGMNWVKQAPGKGLKWMGWINTYTGEPTYVDDFKGRFAFSLETSASTAYLRINNLKNEDTATYFCAKFGNYVGAMDYWGQGTSVTVSS VL: DIQVIQSPSSLSASLGDTITITCHASQNINVWLSWYQQKPGNIPKLLIYKASNLHTGVPSRFSGSGSGTGFTLTISSLQPEDIATYYCQQGQSYPYTFGGGTKLELK",> 70
6,"20D11.2C6-hIgG4(S228P) (antibody, V domains shown, also called QC200083) VH: EVQLQQSGPELVKPGASVKISCKASGYTFTDFYINWVKQSHGKSLEWIGDINPKNGGINYNPKFKIKATLTVDKSSSTSYMDLRGLTSEDSAVYYCTSGYGFPYWGQGTLVTVSA VL: DIQMNQSPSSLSASLGDTITITCRASQNIYIWLSWYQQKPGNIPKLLIYKASNLHTGVPSRFSGSGSGTDFTLTISTLQPEDIATYFCLQGQSYPLTFGAGTKLEMKR",> 70
7,"15G7.2A7-hIgG4(S228P) (antibody, V domains shown, also called QC200074) VH: EVQLQQSGPELVKPGASVKISCKASGYTFTDYYMNWVKQSHGKSLEWIGDINPNNGGTNYNQKFKGKATLTVDKSSSTAYMELRSLTSEDSAVYYCTSGYGFPYWGQGTLVTVSA VL: DIQMNQSPSSLSASLGDTISITCRASQNINIWLSWYQQKPGNIPQLLIYKASNLHTGVPSRFSGSGSGTDFTLTISSLQPEDIATYYCLQGQSYPLTFGAGTKLVMK",> 70
8,"846.1F5-hIgG4(S228P) (antibody, V domains shown, also called F846C.1F5; QC200110) VH: QIQLVQSGPELKKPGETVKISCKASGYTFTNYGMNWVKQAPGKGLKWMGWINTYTGEPSYADDFKGRFAFSLETSASTAYLQINNLKNEDMATYFCARWGGYDGDYYAMDYWGQGTSVTVSS VL: NIMMTQSPSSLAVSAGEKVTMSCKSSQSVLYSSNQKNYLAWYQQKPGQSPKLLIYWASTRESGVPDRFTGSGSGTDFTLTISSVQPEDLAVYYCHQYLSSLTFGAGTKLELK",> 70
9,"846T.16B5-hIgG4(S228P) (antibody, V domains shown, also called F846T.16B5; F846TC.16B5) VH: QIQLVQSGPELKKPGETVKISCKASGYTFTNYGMNWVKQAPGKGLKWMGWINTYTGEPAYADDFKGRFAFSLETSASTAYLQINNLKNEDMATYFCARWGGYDGDYYAMDYWGQGTSVTVSS VL: NIMMTQSPSSLAVSAGEKVTMSCKSSQSVLYSSNQKNYLAWYQQKPGQSPKLLIYWASTRESGVPDRFTGSGSGTDFTLTISSVQAEDLAVYYCHQYLSSLTFGAGTKLELK",> 70
